{"source": "paper PMC3830196", "about": "“Calmodulin-like protein AtCML3 mediates dimerization of peroxisomal processing protease AtDEG15 and contributes to normal peroxisome metabolism” (Plant Molecular Biology, 2013)", "binders": {"B1": {"name": "AtCML3 full length (yeast two-hybrid fusion) (natural protein, Arabidopsis thaliana, UniProt Q9SRR7 1-153, looked up)", "chain": "MDQAELARIFQMFDRNGDGKITKQELNDSLENLGIYIPDKDLVQMIEKIDLNGDGYVDIEEFGGLYQTIMEERDEEEDMREAFNVFDQNRDGFITVEELRSVLASLGLKQGRTLEDCKRMISKVDVDGDGMVNFKEFKQMMKGGGFAALGSNL", "notes": "AtCML3, calmodulin-like protein of Arabidopsis thaliana (At3g07490); full-length coding region; Cloned both into pBridge and pGAD424; also called AtCML3_pGAD424; AtCML3_pBridge; source: yeast two-hybrid fusion (S. cerevisiae AH109)"}}, "biological_target": "T1, AtDEG15 full length (yeast two-hybrid / three-hybrid fusion) (Arabidopsis thaliana, UniProt Q8VZD4 1-709)", "T1 construct": "AtDEG15, peroxisomal DEG protease of Arabidopsis thaliana (At1g28320); full-length coding region; Cloned both into pBridge and pGAD424; in the Y3H the full length stood in pBridge; also called AtDEG15_pBridge; AtDEG15_pGAD424; source: yeast two-hybrid fusion (S. cerevisiae AH109)", "assay": "two-hybrid; Matchmaker GAL4 system, fusions in pBridge (DNA-binding domain) and pGAD424 (activation domain), S. cerevisiae AH109; HIS3 reporter (growth on His-free medium) and lacZ reporter (beta-galactosidase, Miller units)", "conditions": "partners not purified", "data": [{"binder": "B1", "values": [{"measurement": "beta-galactosidase activity, fold over the negative controls", "result": 20, "unit": "fold"}]}]}
